The chains are these.
B1: GST-Nlg1-WT (GST fused to the intracellular domain of neuroligin-1) (domain or fragment, mouse, UniProt Q99K10 719-843, looked up)
chain: YKKDKRRHDVHRRCSPQRTTTNDLTHAPEEEIMSLQMKHTDLDHECESIHPHEVVLRTACPPDYTLAMRRSPDDIPLMTPNTITMIPNTIPGIQPLHTFNTFTGGQNNTLPHPHPHPHSHSTTRV
notes: neuroligin-1 (Nlg1), mouse, cytoplasmic tail amplified from HA-Nlg1 (with splice inserts A and B) and inserted in pGex-4T1 at XhoI/NotI; source: E. coli BL21 (DE3)-RIPL, purified (Glutathione Sepharose 4 Fast Flow, dialysed against PBS)
B2: GST-Nlg1-Y782A (domain or fragment, mouse, UniProt Q99K10 719-843, looked up)
chain: YKKDKRRHDVHRRCSPQRTTTNDLTHAPEEEIMSLQMKHTDLDHECESIHPHEVVLRTACPPDATLAMRRSPDDIPLMTPNTITMIPNTIPGIQPLHTFNTFTGGQNNTLPHPHPHPHSHSTTRV
notes: neuroligin-1 (Nlg1), mouse, cytoplasmic tail amplified from HA-Nlg1-Y782A and inserted in pGex-4T1 at XhoI/NotI; Same limits as m1 (same primers); source: E. coli BL21 (DE3)-RIPL, purified (Glutathione Sepharose 4 Fast Flow, dialysed against PBS)
B3: GST-Nlg1-Y782F (domain or fragment, mouse, UniProt Q99K10 719-843, looked up)
chain: YKKDKRRHDVHRRCSPQRTTTNDLTHAPEEEIMSLQMKHTDLDHECESIHPHEVVLRTACPPDFTLAMRRSPDDIPLMTPNTITMIPNTIPGIQPLHTFNTFTGGQNNTLPHPHPHPHSHSTTRV
notes: neuroligin-1 (Nlg1), mouse, cytoplasmic tail amplified from HA-Nlg1-Y782F and inserted in pGex-4T1 at XhoI/NotI; Same limits as m1 (same primers); source: E. coli BL21 (DE3)-RIPL, purified (Glutathione Sepharose 4 Fast Flow, dialysed against PBS)

We go through three molecules from publication PMC6162332, “A unique intracellular tyrosine in neuroligin-1 regulates AMPA receptor recruitment during synapse differentiation and potentiation” (Nature Communications, 2018).

In the assay the target is T1, PSD-95-mCherry (rat, UniProt P31016 1-724).
T1 construct: PSD-95, rat; the rat PSD-95 gene subcloned in frame with an N-terminal mCherry into pET-24a(+) between EcoRI and XhoI; the methods give no limits; source: E. coli BL21-CodonPlus (DE3)-RIPL, purified (Ni-NTA, dialysed into PBS with 0.01% Tween-20); not shown: mCherry, N-terminal, kept
T1 sequence (P31016 whole entry): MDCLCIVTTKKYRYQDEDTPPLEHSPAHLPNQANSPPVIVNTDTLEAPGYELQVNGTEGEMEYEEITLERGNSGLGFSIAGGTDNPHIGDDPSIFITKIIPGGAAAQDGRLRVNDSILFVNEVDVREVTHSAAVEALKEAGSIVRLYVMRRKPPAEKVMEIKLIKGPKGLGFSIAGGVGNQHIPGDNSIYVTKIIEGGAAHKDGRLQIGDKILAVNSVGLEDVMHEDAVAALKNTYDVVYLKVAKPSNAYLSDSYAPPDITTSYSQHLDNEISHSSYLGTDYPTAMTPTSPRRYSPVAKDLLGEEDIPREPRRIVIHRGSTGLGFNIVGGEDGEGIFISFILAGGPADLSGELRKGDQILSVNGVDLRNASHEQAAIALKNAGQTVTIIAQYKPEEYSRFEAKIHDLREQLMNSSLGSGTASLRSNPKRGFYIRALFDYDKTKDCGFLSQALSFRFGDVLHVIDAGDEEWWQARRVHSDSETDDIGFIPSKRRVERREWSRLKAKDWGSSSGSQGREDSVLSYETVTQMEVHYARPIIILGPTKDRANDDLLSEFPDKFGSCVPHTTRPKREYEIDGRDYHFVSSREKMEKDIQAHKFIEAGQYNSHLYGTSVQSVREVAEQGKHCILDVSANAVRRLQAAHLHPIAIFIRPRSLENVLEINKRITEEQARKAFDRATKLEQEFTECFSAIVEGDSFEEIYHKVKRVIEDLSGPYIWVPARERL
The experiment in a line: pull-down; GST or GST-Nlg1 proteins (0.64 nmol/200 µl) on glutathione magnetic beads in PBS pH 7.4, 0.01% BSA, 0.01% Tween-20; incubated 20 min at RT with purified PSD-95-mCherry (0.01 nmol/100 µL); eluted with glutathione; anti-PSD-95 immunoblot. The note with it: both partners purified. For orientation: Immunoblotting shows a protein as a band on a membrane.
In the case of B1, the binding result is listed as “binds”.

In the case of B2, the binding result is on record as “binds”.

For the molecule B3, the binding result was “binds”.
